The assay addresses RT1.D (rat MHC class II molecule) (rat). Briefly: cell-based or functional assay.

In the case of Ox-17 (anti-RT1.D antibody), the inhibition of proliferation of PI-specific T cells to 20 ug/ml PI peptide lay in the range of 22 to 25%.

Values taken from US6509165.
